According to paper PMC8510550:

Target: VirB4-like TraB ATPase of the pKM101-encoded type IV secretion system (plasmid pKM101 (carried in E. coli))
Assay: cryo-EM structure; in situ cryo-electron tomography with subtomogram averaging of T4SS(pKM101) machines in E. coli UU2834 minicells; 6-fold symmetry seen in class averages and then imposed for the IMC; wild type compared with ΔtraB mutant machines

stoichiometry N: 12
Substance: VirB4-like TraB ATPase of the pKM101-encoded type IV secretion system (enzyme)
